Results: IntAct's records for PubMed 16452984

B1: Rap guanine nucleotide exchange factor 4 (Mus musculus), Q9EQZ6-3 (parent)
chain: MVAAHAAHSQSSAEWIACLDKRPLERSSEDVDIIFTRLKGVKAFEKFHPNLLRQICLCGYYENLEKGITLFRQGDIGTNWYAVLAGSLDVKVSETSSHQDAVTICTLGIGTAFGESILDNTPRHATIVTRESSELLRIEQEDFKALWEKYRQYMAGLLAPPYGVMETGSNNDRIPDKENVPSEKILRAGKILRIAILSRAPHMIRDRKYHLKTYRQCCVGTELVDWMIQQTSCVHSRTQAVGMWQVLLEDGVLNHVDQERHFQDKYLFYRFLDDEREDAPLPTEEEKKECDEELQDTMLLLSQMGPDAHMRMILRKPPGQRTVDDLEIIYDELLHIKALSHLSTTVKRELAGVLIFESHAKGGTVLFNQGEEGTSWYIILKGSVNVVIYGKGVVCTLHEGDDFGKLALVNDAPRAASIVLREDNCHFLRVDKEDFNRILRDVEANTVRLKEHDQDVLVLEKVPAGNRAANQGNSQPQQKYTVMSGTPEKILEHFLETIRLEPSLNEATDSVLNDFVMMHCVFMPNTQLCPALVAHYHAQPSQGTEQERMDYALNNKRRVIRLVLQWAAMYGDLLQEDDVAMAFLEEFYVSVSDDARMMAAFKEQLPELEKIVKQISEDAKAPQKKHKVLLQQFNTGDERAQKRQPIRGSDEVLFKVYCIDHTYTTIRVPVAASVKEVISAVADKLGSGEGLIIVKMNSGGEKVVLKSNDVSVFTTLTINGRLFACPREQFDSLTPLPEQEGPTTGTVGTFELMSSKDLAYQMTTYDWELFNCVHELELIYHTFGRHNFKKTTANLDLFLRRFNEIQFWVVTEVCLCSQLSKRVQLLKKFIKIAAHCKEYKNLNSFFAIVMGLSNVAVSRLALTWEKLPSKFKKFYAEFESLMDPSRNHRAYRLTAAKLEPPLIPFMPLLIKDMTFTHEGNKTFIDNLVNFEKMRMIANTARTVRYYRSQPFNPDAAQANKNHQDVRSYVRQLNVIDNQRTLSQMSHRLEPRRP

Variants of: B1
Settings: with rap1b_human RAP1B

Q: For R886A, which “effect of a mutation on the interaction” value is on record?
A: decreasing interaction strength

Q: With H452A as the variant, how does the “effect of a mutation on the interaction” value read?
A: decreasing interaction strength
